Results on one molecule are retold here after publication PMC6695792 (Molecules, 2019).

The target in the test is hPD-L1 of the Cis-Bio HTRF assay kit (human, UniProt Q9NZQ7 19-238). Put plainly: AlphaScreen or HTRF; Cis-Bio kit, 5 nM hPD-L1 and 50 nM hPD-1, 20 µL, dilution series of the inhibitor up to 5 mM, 2 h at room temperature, duplicates, normalized Hill fit. To be noted: both partners purified. For orientation: Alpha assays give light when donor and acceptor beads are brought close together.

No end group written: not given here. Some results are limits rather than exact numbers.

B1: AUNP-12 peptide (peptide)
chain 1: SNTSESFKFRVTQLAPKAQIKE
chain 2: SNTSESF
modifications: also: bond at chain A 8 at chain B 7 to a chain's C-terminus via isopeptide
As for B1, the IC50 – broadly, the midpoint of a concentration-inhibition curve – is over 10 mM.
